Measured values published in patent publication US20100297726A1 (AMANO ENZYME, published 2010).
Each block holds one binder with its values, some of them ahead of it.

Molecular target: T1, mature transglutaminase (Streptomyces mobaraensis strain No. 140226) (Streptomyces mobaraensis, UniProt P81453 77-407)
T1 construct: Natural enzyme from the culture solution; also called mature TGase; M-TGase
T1 sequence: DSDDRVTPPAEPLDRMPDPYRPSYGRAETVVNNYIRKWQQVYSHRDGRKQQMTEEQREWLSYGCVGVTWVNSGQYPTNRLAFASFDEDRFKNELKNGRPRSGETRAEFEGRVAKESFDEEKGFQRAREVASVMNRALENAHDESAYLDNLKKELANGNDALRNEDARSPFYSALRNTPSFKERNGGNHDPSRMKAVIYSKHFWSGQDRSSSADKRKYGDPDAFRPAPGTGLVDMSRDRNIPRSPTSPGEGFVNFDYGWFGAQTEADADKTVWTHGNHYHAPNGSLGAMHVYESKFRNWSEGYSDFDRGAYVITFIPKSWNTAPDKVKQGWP
Experiment: gel filtration (Sephacryl S-100), elution patterns with and without SDS
Experimental: On the other hand, ammonium sulfate was added to the recovered supernatant until the concentration of saturated solution was achieved, and precipitates were recovered. The recovered precipitates were dissolved in 20 mM phosphate buffer solution (KPB; pH 7.2), and then dialyzed against the same buffer solution. Next, ammonium sulfate was added to the dialysate so that 1.7 M ammonium sulfate was obtained, which was subjected to Phenyl-Sepharose 6 Fast Flow equilibrated with 20 mM phosphate buffer solution (KPB; pH 7.2) containing 1.7 M ammonium sulfate, washed with 1.7 M ammonium sulfate, and eluted with 1.0 M ammonium sulfate. Thus, the target stabilized TGase (P-TGase) was eluted in the eluted fraction. The specific activity of the thus obtained P-TGase (u/Abs 280 nm) was 7.9. The elution patterns of gel filtration (Sephacryl S-100) was compared between the case in which SDS (sodium dodecyl sulfate) was added and the case in which SDS was not added.

binding result: binds
B1: pro-sequence peptide of transglutaminase (2) DNGAGEETKSYAETYRLTADDVANINALNESAPAAS (peptide)
peptide: DNGAGEETKSYAETYRLTADDVANINALNESAPAAS
notes: Recovered from P-TGase of Streptomyces mobaraensis strain No. 140226 after SDS treatment and gel filtration

binding result: binds
B2: pro-sequence peptide of transglutaminase (3) DNGAGEETKSYAETYRLTADDVANINALNESAPAASS (peptide)
peptide: DNGAGEETKSYAETYRLTADDVANINALNESAPAASS
notes: as for B1

binding result: binds
B3: pro-sequence peptide of transglutaminase (1) DNGAGEETKSYAETYRLTADDVANINALNESAPAA (peptide)
peptide: DNGAGEETKSYAETYRLTADDVANINALNESAPAA
notes: Recovered from P-TGase of Streptomyces mobaraensis strain No. 140226 after SDS treatment and gel filtration; One of three peptide species found in the P-TGase preparation
